Measurements reported in US9567641B2, “Combination therapy for the treatment of cancer using an anti-C-met antibody” (SAMSUNG ELECTRONICS CO., LTD., priority 2013, dated 2017).

Columns and labels:
Type in all cases: cell-based
[1] = tested on: MKN45 gastric cancer cell line with acquired resistance against L3-1Y/IgG2 antibody; experiment: Cell viability, CellTiter Glo, resistance-acquired cell line
Procedure: To see whether the treatment RAF1 siRNA can overcome resistance acquired due to the repetitive treatment of an antibody, tests were carried out using MKN45 gastric cancer cell line which had been treated by L3-1Y/IgG2 antibody for 3 months or longer and acquired resistance against it. The resistance-acquired MKN45 gastric cancer cell line was prepared as follows: MKN45 cells (JCRB, JCRB0254) were treated with L3-1Y/IgG2 antibody in amounts being increased over 3 months or longer. The amount of L3-1Y/IgG2 antibody to be treated started from its initial treatment concentration of 1 ug/ml and was increased up to 10 ug/ml until resistance occurred. To confirm the acquisition of L3-1Y/IgG2 antibody resistance, the resistance-acquired clones were treated or not treated with L3-1Y/IgG2 antibody and then incubated, followed by CTG assays.
As a control group, All Negative control siRNA (Qiagen, cat. no. 1027281) was used, and as a target siRNA, a mixture of two kinds of siRNAs (see Table 7) that had effects during the screening was used. […]
(§1) 5000 cells of MKN45 cells which have acquired resistance against L3-1Y/IgG2 antibody were seeded onto a 96-well plate, and 24 hours after, the plate was treated with L3-1Y/IgG2 antibody and an ITGB3 inhibitor, cilengitide (Merck KGaA, EMD 121974). 72 hours later after the treatment, a change in the number of cells was measured using CellTiter Glo assay. The MKN45 cells which have acquired resistance against L3-1Y/IgG2 antibody were prepared referring to Example 4.3. Cilengitide was treated at a fixed concentration of 10 uM, and the L3-1Y/IgG2 antibody was treated by ⅕ dilution each time starting from 2 ug/ml. For comparison, the same test was conducted using L3-1Y/IgG2 antibody alone.
as §1, with “AKT” for “ITGB3”, “MK-2206” for “cilengitide”, “& Co Inc).” for “KGaA, EMD 121974).”, “MK-2206” for “Cilengitide”, “5” for “10”
To verify whether or not the resistance acquired by repetitive administration of anti-c-Met antibody can be overcome by BCL2L1 inhibition, L3-1Y/IgG2 antibody resistance acquired MKN45 cells, where the resistance against L3-1Y/IgG2 antibody is acquired by treating MKN45 gastric cancer cells (JCRB, JCRB0254) with the L3-1Y/IgG2 antibody for at least 3 months, were used. The L3-1Y/IgG2 antibody resistance acquired MKN45 gastric cancer cells were prepared referring to Example 4.3. […]

[2] = tested on: HCC1806 breast cancer cells; experiment: Cell viability, CellTiter Glo, combination with L3-1Y/IgG2 antibody
Procedure: The efficacy of the combination administration of ITGB3 siRNA and L3-1Y/IgG2 antibody was examined in a breast cancer cell line on which the anti-c-Met antibody alone has no effects. For this, HCC1806 (ATCC, CRL-2335) and HCC1954 (ATCC, CRL-2338) cells were used.
As a control group, All Negative control siRNA (Qiagen, cat. no. 1027281) was used, and as a target siRNA, a mixture of two kinds of siRNAs (see Table 7) that had effects during the screening was used. Transfection was carried out by the same procedures as Example 3.1 and after 24 hours, the cultured cells were treated with L3-1Y/IgG2 antibody at 0 ug/ml, 0.016 ug/ml, 0.08 ug/ml, 0.4 ug/ml, or 2 ug/ml. 72 hours later after the treatment, 100 uL of CellTiter Glo solution (Promega, G7572) was added to each well, which was allowed to stay at a room temperature for 30 min. The number of cells was counted via luminescence signals, which were recorded using Envision 2104 Multi-label Reader (Perkin Elmer).
To verify the effect of the combination therapy using ITGB3 inhibitor and anti-c-Met antibody in breast cancer cells on which the anti-c-Met antibody has no effects, HCC1806 (ATCC, CRL-2335) cells were used. The HCC 1806 cells are a cell line known to have high amounts of c-Met.
5000 cells of HCC1806 cells were seeded onto a 96-well plate, and 24 hours after, the plate was treated with L3-1Y/IgG2 antibody and an ITGB3 inhibitor, cilengitide (Merck KGaA, EMD 121974). 72 hours later after the treatment, a change in the number of cells was measured using CellTiter Glo assay. Cilengitide was treated at a fixed concentration of 10 uM, and the L3-1Y/IgG2 antibody was treated by ⅕ dilution each time starting from 2 ug/ml. For comparison, the same test was conducted using L3-1Y/IgG2 antibody alone.
The efficacy of combination administration was examined in a breast cancer cell line on which the anti-c-Met antibody has no effects. For this, HCC1806 (ATCC, CRL-2335) cells were used.
5000 HCC1806 cells were seeded onto a 96-well plate and 24 hours after, the plate was treated with L3-1Y/IgG2 antibody and an AKT inhibitor, MK-2206 (Merck & Co Inc) and 72 hours later after the antibody treatment, a change in the number of cells was measured using CellTiter Glo assay. MK-2206 was treated at a fixed concentration of 10 uM, and the L3-1Y/IgG2 antibody was treated by ⅕ dilution each time starting from 2 ug/ml. For comparison, the same test was conducted using L3-1Y/IgG2 antibody alone.

[3] = tested on: L3-1Y/IgG2 antibody resistance acquired EBC1 lung cancer cells; experiment: Cell viability, CellTiter Glo, resistance-acquired cell line; conditions: L3-1Y/IgG2 antibody alone
Procedure: To verify whether or not the resistance acquired by repetitive administration of anti-c-Met antibody can be overcome by BCL2L1 inhibition, L3-1Y/IgG2 antibody resistance acquired EBC1 cells, where the resistance against L3-1Y/IgG2 antibody is acquired by treating EBC1 lung cancer cells (JCRB, JCRB0820) with the L3-1Y/IgG2 antibody for at least 3 months, were used. The L3-1Y/IgG2 antibody resistance acquired EBC1 lung cancer cells were prepared referring to Example 4.3.
5000 cells of the L3-1Y/IgG2 antibody resistance acquired EBC1 cells were seeded onto a 96-well plate and 24 hours after, the plate was treated with a BCL2 family inhibitor, ABT-263 (Abbott Laboratories) and 72 hours later after the antibody treatment, a change in the number of cells was measured using CellTiter Glo assay. ABT-263 was treated at a fixed concentration of 0.5 uM, and the L3-1Y/IgG2 antibody was treated by ⅕ dilution each time starting from 2 ug/ml.

[4] = L3-1Y/IgG2 antibody alone (1/5 dilutions from 2 ug/ml), 72 h
[5] = L3-1Y/IgG2 antibody alone (negative control siRNA)

B1: L3-1Y/IgG2: anti-c-Met antibody: huAbF46-H4-A1 heavy chain variable region, human IgG2 hinge and constant region, kappa light chain with H36Y (antibody)
heavy: EVQLVESGGGLVQPGGSLRLSCAASGFTFTDYYMSWVRQAPGKGLEWLGFIRNKANGYTTEYSASVKGRFTISRDNSKNTLYLQMNSLRAEDTAVYYCARDNWFAYWGQGTLVTVSSASTKGPSVFPLAPCSRSTSESTAALGCLVKDYFPEPVTVSWNSGALTSGVHTFPAVLQSSGLYSLSSVVTVPSSNFGTQTYTCNVDHKPSNTKVDKTVERKCCVECPPCPAPPVAGPSVFLFPPKPKDTLMISRTPEVTCVVVDVSHEDPEVQFNWYVDGVEVHNAKTKPREEQFNSTFRVVSVLTVVHQDWLNGKEYKCKVSNKGLPAPIEKTISKTKGQPREPQVYTLPPSREEMTKNQVSLTCLVKGFYPSDIAVEWESNGQPENNYKTTPPMLDSDGSFFLYSKLTVDKSRWQQGNVFSCSVMHEALHNHYTQKSLSLSPGK
light: DIQMTQSPSSLSASVGDRVTITCKSSQSLLASGNQNNYLAWYQQKPGKAPKMLIIWASTRVSGVPSRFSGSGSGTDFTLTISSLQPEDFATYYCQQSYSRPYTFGQGTKVEIKRTVAAPSVFIFPPSDEQLKSGTASVVCLLNNFYPREAKVQWKVDNALQSGNSQESVTEQDSKDSTYSLSSTLTLSKADYEKHKVYACEVTHQGLSSPVTKSFNRGEC
did not occur: growth inhibitory effect (cell viability) [1, 4] | cancer cell growth inhibitory efficacy (cell viability) [1, 5] | growth inhibitory effect (cell viability) [2, 4] | cancer cell growth inhibitory efficacy (cell viability) [2, 5] | cancer cell growth inhibitory effect (cell viability) [3]
